The assay has as its target dual chain avidin dcAvd(I117C5→4S16C,V115H6→5). Put plainly: non-reducing SDS-PAGE; denatured in SDS-PAGE sample buffer without β-mercaptoethanol at 95°C for ten minutes, 15% gel, Coomassie staining.

“dual chain avidin dcAvd(I117C5→4S16C,V115H6→5)” displayed a stoichiometry N of 2.

The values above are taken from article PMC3029397.
